B1: N-terminal 3×-FLAG-tagged p52 (WT) [human] / p44 [human (endogenous in HEK293T)] (parent)
chain 1: MESTPSRGLNRVHLQCRNLQEFLGGLSPGVLDRLYGHPATCLAVFRELPSLAKNWVMRMLFLEQPLPQAAVALWVKKEFSKAQEESTGLLSGLRIWHTQLLPGGLQGLILNPIFRQNLRIALLGGGKAWSDDTSQLGPDKHARDVPSLDKYAEERWEVVLHFMVGSPSAAVSQDLAQLLSQAGLMKSTEPGEPPCITSAGFQFLLLDTPAQLWYFMLQYLQTAQSRGMDLVEILSFLFQLSFSTLGKDYSVEGMSDSLLNFLQHLREFGLVFQRKRKSRRYYPTRLAINLSSGVSGAGGTVHQPGFIVVETNYRLYAYTESELQIALIALFSEMLYRFPNMVVAQVTRESVQQAIASGITAQQIIHFLRTRAHPVMLKQTPVLPPTITDQIRLWELERDRLRFTEGVLYNQFLSQVDFELLLAHARELGVLVFENSAKRLMVVTPAGHSDVKRFWKRQKHSS
chain 2: MDEEPERTKRWEGGYERTWEILKEDESGSLKATIEDILFKAKRKRVFEHHGQVRLGMMRHLYVVVDGSRTMEDQDLKPNRLTCTLKLLEYFVEEYFDQNPISQIGIIVTKSKRAEKLTELSGNPRKHITSLKKAVDMTCHGEPSLYNSLSIAMQTLKHMPGHTSREVLIIFSSLTTCDPSNIYDLIKTLKAAKIRVSVIGLSAEVRVCTVLARETGGTYHVILDESHYKELLTHHVSPPPASSSSECSLIRMGFPQHTIASLSDQDAKPSFSMAHLDGNTEPGLTLGGYFCPQCRAKYCELPVECKICGLTLVSAPHLARSYHHLFPLDAFQEIPLEEYNGERFCYGCQGELKDQHVYVCAVCQNVFCVDCDVFVHDSLHCCPGCIHKIPAPSGV

The variants in the assay derive from B1. As to the kind of experiment: FLAG-IP LC–MS (iBAQ). Particulars: with p44 [human (endogenous in HEK293T)]; HEK293T nuclear extracts; n = 3, biological replicates; read off a plot.
For the variant chain 1 MESTPSRGLNRVHLQCRNLQEFLGGLSPGVLDRLYGHPATCLAVFRELPSLAKNWVMRMLFLEQPLPQAAVALWVKKEFSKAQEESTGLLSGLRIWHTQLLPGGLQGLILNPIFRQNLRIALLGGGKAWSDDTSQLGPDKHARDVPSLDKYAEERWEVVLHFMVGSPSAAVSQDLAQLLSQAGLMKSTEPGEPPCITSAGFQFLLLDTPAQLWYFMLQYLQTAQSRGMDLVEILSFLFQLSFSTLGKDYSVEGMSDSLLNFLQHLREFGLVFQRKRKSRRYYPTRLAINLSSGVSGAGGTVHQPGFIVVFTNYRLYAYTESELQIALIALFSEMLYRFPNMVVAQVTRESVQQAIASGITAQQIIHFLRTRAHPVMLKQTPVLPPTITDQIRLWELERDRLRFTEGVLYNQFLSQVDFELLLAHARELGVLVFENSAKRLMVVTPAGHSDVKRFWKRQKHSS [chain 1 E310F], the response (Normalized Log2 iBAQ) amounted to 0.64.

Regarding chain 1 MESTPSRGLNRVHLQCRNLQEFLGGLSPGVLDRLYGHPATCLAVFRELPSLAKNWVMRMLFLEQPLPQAAVALWVKKEFSKAQEESTGLLSGLRIWHTQLLPGGLQGLILNPIFRQNLRIALLGGGKAWSDDTSQLGPDKHARDVPSLDKYAEERWEVVLHFMVGSPSAAVSQDLAQLLSQAGLMKSTEPGEPPCITSAGFQFLLLDTPAQLWYFMLQYLQTAQSRGMDLVEILSFLFQLSFSTLGKDYSVEGMSDSLLNFLQHLREFGLVFQRKRKSRRYYPTRLAINLSSGVSGAGGTVHQPGFIVVATNYALYAYTESELQIALIALFSEMLYRFPNMVVAQVTRESVQQAIASGITAQQIIHFLRTRAHPVMLKQTPVLPPTITDQIRLWELERDRLRFTEGVLYNQFLSQVDFELLLAHARELGVLVFENSAKRLMVVTPAGHSDVKRFWKRQKHSS [chain 1 E310A R314A], the response (Normalized Log2 iBAQ) amounted to 0.66. As for chain 1 MESTPSRGLNRVHLQCRNLQEFLGGLSPGVLDRLYGHPATCLAVFRELPSLAKNWVMRMLFLEQPLPQAAVALWVKKEFSKAQEESTGLLSGLRIWHTQLLPGGLQGLILNPIFRQNLRIALLGGGKAWSDDTSQLGPDKHARDVPSLDKYAEERWEVVLHFMVGSPSAAVSQDLAQLLSQAGLMKSTEPGEPPCITSAGFQFLLLDTPAQLWYFMLQYLQTAQSRGMDLVEILSFLFQLSFSTLGKDYSVEGMSDSLLNFLQHLREFGLVFQRKRKSRRYYPTRLAINLSSGVSGAGGTVHQPGFIVVETNYRLYAYTESELQIALIALFSEMLYAAPNMVVAQVTRESVQQAIASGITAQQIIHFLRTRAHPVMLKQTPVLPPTITDQIRLWELERDRLRFTEGVLYNQFLSQVDFELLLAHARELGVLVFENSAKRLMVVTPAGHSDVKRFWKRQKHSS [chain 1 R337A F338A], the figure is 0.71; as for chain 1 MESTPSRGLNRVHLQCRNLQEFLGGLSPGVLDRLYGHPATCLAVFRELPSLAKNWVMRMLFLEQPLPQAAVALWVKKEFSKAQEESTGLLSGLRIWHTQLLPGGLQGLILNPIFRQNLRIALLGGGKAWSDDTSQLGPDKHARDVPSLDKYAEERWEVVLHFMVGSPSAAVSQDLAQLLSQAGLMKSTEPGEPPCITSAGFQFLLLDTPAQLWYFMLQYLQTAQSRGMDLVEILSFLFQLSFSTLGKDYSVEGMSDSLLNFLQHLREFGLVFQRKRKSRRYYPTRLAINLSSGVSGAGGTVHQPGFIVVETNYRLAAATESELQIALIALFSEMLYRFPNMVVAQVTRESVQQAIASGITAQQIIHFLRTRAHPVMLKQTPVLPPTITDQIRLWELERDRLRFTEGVLYNQFLSQVDFELLLAHARELGVLVFENSAKRLMVVTPAGHSDVKRFWKRQKHSS [chain 1 Y316A Y318A], 0.66.

The record behind these values is publication PMC9557730.
